The values below come from PMC4749091 (The Journal of Experimental Medicine, 2016).

The target in this assay is T1, human CD112-Fc fusion protein (human, UniProt Q92692 32-360).
T1 sequence (looked up): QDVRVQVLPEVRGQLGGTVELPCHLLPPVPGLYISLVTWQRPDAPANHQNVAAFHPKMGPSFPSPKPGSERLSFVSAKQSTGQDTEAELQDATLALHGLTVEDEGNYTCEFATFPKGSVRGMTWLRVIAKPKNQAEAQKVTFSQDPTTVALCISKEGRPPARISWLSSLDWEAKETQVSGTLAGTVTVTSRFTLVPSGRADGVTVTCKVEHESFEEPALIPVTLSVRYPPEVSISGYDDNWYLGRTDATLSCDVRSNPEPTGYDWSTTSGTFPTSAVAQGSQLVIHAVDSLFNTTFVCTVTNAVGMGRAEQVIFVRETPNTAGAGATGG
Put plainly: competition by flow cytometry on protein-coated beads. On the technique in general: Flow cytometry measures light scatter and fluorescence of single cells or particles in a stream.

B1: human CD226-Fc fusion protein (Fc fusion, UniProt Q15762 19-254, looked up)
chain: EEVLWHTSVPFAENMSLECVYPSMGILTQVEWFKIGTQQDSIAIFSPTHGMVIRKPYAERVYFLNSTMASNNMTLFFRNASEDDVGYYSCSLYTYPQGTWQKVIQVVQSDSFEAAVPSNSHIVSEPGKNVTLTCQPQMTWPVQAVRWEKIQPRQIDLLTYCNLVHGRNFTSKFPRQIVSNCSHGRWSVIVIPDVTVSDSGLYRCYLQASAGENETFVMRLTVAEGKTDNQYTLFVA
For B1, the binding result is reported as “binds”.
